From publication PMC4490372, “Architecture of TFIIIC and its role in RNA polymerase III pre-initiation complex assembly” (Nature Communications, 2015)

T1: Bdp1, full-length, recombinant (UniProt P46678 1-594)
T1 construct: Bdp1, subunit of TFIIIB, full-length; also called untagged Bdp1; source: E. coli BL21 Star (DE3) pRARE, purified (Ni-NTA, TEV cleavage, S200 SEC); not shown: His6, N-terminal, cleaved
T1 sequence (looked up): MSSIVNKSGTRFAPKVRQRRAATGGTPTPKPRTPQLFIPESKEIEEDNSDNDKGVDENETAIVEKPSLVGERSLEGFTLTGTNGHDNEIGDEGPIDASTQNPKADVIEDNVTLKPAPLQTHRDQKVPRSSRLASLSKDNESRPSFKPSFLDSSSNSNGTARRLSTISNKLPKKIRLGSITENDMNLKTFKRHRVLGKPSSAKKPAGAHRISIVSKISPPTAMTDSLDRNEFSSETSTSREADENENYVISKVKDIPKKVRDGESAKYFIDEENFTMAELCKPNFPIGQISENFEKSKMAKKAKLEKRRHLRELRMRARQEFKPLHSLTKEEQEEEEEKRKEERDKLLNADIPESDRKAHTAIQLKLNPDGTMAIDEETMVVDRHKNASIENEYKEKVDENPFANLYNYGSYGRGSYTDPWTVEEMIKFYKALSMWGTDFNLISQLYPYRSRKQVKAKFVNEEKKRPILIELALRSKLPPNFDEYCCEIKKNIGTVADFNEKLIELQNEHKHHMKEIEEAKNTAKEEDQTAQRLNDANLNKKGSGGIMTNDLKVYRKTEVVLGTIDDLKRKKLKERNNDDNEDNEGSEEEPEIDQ

T2: τ91 (Tfc6), τB subunit of endogenous S. cerevisiae TFIIIC (S. cerevisiae, UniProt Q06339 1-672)
T2 construct: τ91 (Tfc6), subunit of S. cerevisiae TFIIIC, endogenous subunit in the purified complex; source: endogenous, purified from S. cerevisiae strain SC2342 as part of TFIIIC (TAP tag on τ60)
T2 sequence (looked up): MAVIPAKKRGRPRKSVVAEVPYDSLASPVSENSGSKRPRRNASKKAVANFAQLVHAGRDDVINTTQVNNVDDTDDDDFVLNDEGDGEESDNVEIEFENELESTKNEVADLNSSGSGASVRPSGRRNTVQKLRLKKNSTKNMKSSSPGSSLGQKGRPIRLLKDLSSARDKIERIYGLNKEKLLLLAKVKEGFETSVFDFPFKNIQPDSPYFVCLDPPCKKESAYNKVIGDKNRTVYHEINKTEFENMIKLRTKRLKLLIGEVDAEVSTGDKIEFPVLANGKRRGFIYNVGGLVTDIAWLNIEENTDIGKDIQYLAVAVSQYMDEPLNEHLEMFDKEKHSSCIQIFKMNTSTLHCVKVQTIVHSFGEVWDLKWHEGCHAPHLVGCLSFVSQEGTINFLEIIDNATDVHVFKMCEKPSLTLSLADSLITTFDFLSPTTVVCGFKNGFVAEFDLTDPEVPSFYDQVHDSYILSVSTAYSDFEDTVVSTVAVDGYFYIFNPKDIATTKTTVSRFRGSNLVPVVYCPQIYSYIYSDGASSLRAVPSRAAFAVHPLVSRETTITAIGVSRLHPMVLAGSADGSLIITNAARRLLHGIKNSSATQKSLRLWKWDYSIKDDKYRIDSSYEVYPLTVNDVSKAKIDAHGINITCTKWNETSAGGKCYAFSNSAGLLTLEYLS

B1: GST-tagged τ131 (1–580), wild type (domain or fragment, S. cerevisiae, UniProt P33339 1-580, looked up)
chain: MAAGKLKKEQQNQSAERESADTGKVNDEDEEHLYGNIDDYKHLIQDEEYDDEDVPHDLQLSEDEYNSERDSSLLAEFSDYGEISEDDEEDFMNAIREASNFKVKKKKKNDKGKSYGRQRKERVLDPEVAQLLSQANEAFVRNDLQVAERLFNEVIKKDARNFAAYETLGDIYQLQGRLNDCCNSWFLAAHLNASDWEFWKIVAILSADLDHVRQAIYCFSRVISLNPMEWESIYRRSMLYKKTGQLARALDGFQRLYMYNPYDANILRELAILYVDYDRIEDSIELYMKVFNANVERREAILAALENALDSSDEESAAEGEDADEKEPLEQDEDRQMFPDINWKKIDAKYKCIPFDWSSLNILAELFLKLAVSEVDGIKTIKKCARWIQRRESQTFWDHVPDDSEFDNRRFKNSTFDSLLAAEKEKSYNIPIDIRVRLGLLRLNTDNLVEALNHFQCLYDETFSDVADLYFEAATALTRAEKYKEAIDFFTPLLSLEEWRTTDVFKPLARCYKEIESYETAKEFYELAIKSEPDDLDIRVSLAEVYYRLNDPETFKHMLVDVVEMRKHQVDETLHRISNE
notes: τ131 (Tfc4) of S. cerevisiae TFIIIC, residues 1-580 (extended N terminus and TPR array); also called GST-τ131 (1–580); longer τ131 protein; source: E. coli BL21 (DE3) Gold, purified (GST column, S200 SEC)
B2: GST-tagged τ131 (123–566), wild type (domain or fragment, S. cerevisiae, UniProt P33339 123-566, looked up)
chain: VLDPEVAQLLSQANEAFVRNDLQVAERLFNEVIKKDARNFAAYETLGDIYQLQGRLNDCCNSWFLAAHLNASDWEFWKIVAILSADLDHVRQAIYCFSRVISLNPMEWESIYRRSMLYKKTGQLARALDGFQRLYMYNPYDANILRELAILYVDYDRIEDSIELYMKVFNANVERREAILAALENALDSSDEESAAEGEDADEKEPLEQDEDRQMFPDINWKKIDAKYKCIPFDWSSLNILAELFLKLAVSEVDGIKTIKKCARWIQRRESQTFWDHVPDDSEFDNRRFKNSTFDSLLAAEKEKSYNIPIDIRVRLGLLRLNTDNLVEALNHFQCLYDETFSDVADLYFEAATALTRAEKYKEAIDFFTPLLSLEEWRTTDVFKPLARCYKEIESYETAKEFYELAIKSEPDDLDIRVSLAEVYYRLNDPETFKHMLVDVVEMR
notes: also called GST-τ131; source: E. coli BL21 (DE3) Gold, purified (GST column, S200 SEC)
B3: τ60 (Tfc8), τB subunit of endogenous S. cerevisiae TFIIIC, fused with a C-terminal TAP-tag (natural protein, UniProt Q12308 1-588, looked up)
chain: MKLLKDLLVDRKEFEDWKNNLTWARDGTLYLTTFPDISIGQPKYAKDINCNSKNLFHVKEFPLEFENKLDFELAQQNGLLNSQPVCYPRVCKPSPIDDWMAVLSNNGNVSVFKDNKMLTNLDSKGNLSSRTYHCFEWNPIESSIVVGNEDGELQFFSIRKNSENTPEFYFESSIRLSDAGSKDWVTHIVWYEDVLVAALSNNSVFSMTVSASSHQPVSRMIQNASRRKITDLKIVDYKVVLTCPGYVHKIDLKNYSISSLKTGSLENFHIIPLNHEKESTILLMSNKTSYKVLLEDELHVTADNIIAPYLEKKFKKWSTIWNEFNNYETTLVIHGISLSPDGYSIAIVYDMERVAFKYKIASEQSFNIMFAPLYHTWTISERAVGLAWYQTYQIYNQSLPKLPENFSMNKKLLNGNYPISLDFQSYLNALMKSEEMRIIMFLNMTIDKPSILSFLEALYEYAINKKSELTNSFDLACVLSIAAILKREAPIYNGTLLMKNSFLEETFNLESFTADPETVTSTTNNTWKRCGVTLLPILTTHVKICPVSKQRVIDIKRDDLNDYGWFTRGLLERFNEISVYCGTTLEVM
notes: τ60 (Tfc8), subunit of S. cerevisiae TFIIIC, endogenous TFC8 fused with a C-terminal TAP-tag; The complex was captured on IgG Sepharose by the TAP tag and released by TEV protease before MonoQ, Superose 6 and cross-linking; not shown: TAP, C-terminal, kept

Assays:
[1] = biological target: T1, Bdp1, full-length, recombinant; assay: pull-down; 15 μg GST-tagged τ131 on Glutathione Sepharose 4B; 300 nM τ138 or Bdp1, or 1 μM Brf1–TBP; 50 mM Tris pH 7.5, 150 mM NaCl, 2 mM DTT, 0.1% Tween20; 4 °C, 4 h; conditions: both partners purified
[2] = biological target: T2, τ91 (Tfc6), τB subunit of endogenous S. …; assay: SEC; endogenous TFIIIC purified from yeast by the TAP tag on τ60 (heparin, IgG Sepharose, TEV, MonoQ), then Superose 6 10/300 in 25 mM HEPES pH 7.5, 150 mM NaCl, 1 mM DTT; SDS-PAGE of an elution peak fraction; conditions: partners not purified

| Binder | binding result [1] | binding result [2] |
| --- | --- | --- |
| B1 | binds |  |
| B2 | binds |  |
| B3 |  | binds |
